In patent publication US20220363757A1:

Biological target: cynomolgus LAG-3 ECD human IgG1 Fc fusion (cynomolgus; human), P18627
Assay: SPR, Fab over captured LAG-3 ECD-Fc

cynomolgus LAG-3 ECD human IgG1 Fc fusion (cynomolgus; human), P18627, sequence (P18627 other isoform, or with tags, fused parts or gaps, form in doubt): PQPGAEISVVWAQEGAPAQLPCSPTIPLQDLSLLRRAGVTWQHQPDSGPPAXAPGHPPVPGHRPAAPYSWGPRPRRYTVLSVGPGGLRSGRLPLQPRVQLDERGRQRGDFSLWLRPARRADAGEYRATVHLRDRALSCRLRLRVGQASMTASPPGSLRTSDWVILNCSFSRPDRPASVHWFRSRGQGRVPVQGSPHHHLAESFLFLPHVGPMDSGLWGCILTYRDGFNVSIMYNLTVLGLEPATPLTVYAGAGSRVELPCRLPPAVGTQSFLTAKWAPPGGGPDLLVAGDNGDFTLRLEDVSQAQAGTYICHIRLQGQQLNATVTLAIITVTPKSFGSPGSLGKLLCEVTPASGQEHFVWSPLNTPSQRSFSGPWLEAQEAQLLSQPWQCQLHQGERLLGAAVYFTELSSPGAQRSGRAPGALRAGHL

Kd | koff | kon | Binder
68 nM | 0.0048 s⁻¹ | 71000 M⁻¹ s⁻¹ | Fab fragment of antibody 15532 (Fab, not shown: a dimerising Fc or GST) heavy: QVQLQQWGAGLLRPSETLSLTCAVYGESFSGYYWNWIRQPPGKGLEWIGEINHSGSTNYNPSLKSRVTISVDTSKTQFSLKLSSVTAADTAVYYCARGWDLLDWNDYWNEYWGQGTLVTVSS light: not shown
120 nM | 0.0068 s⁻¹ | 59000 M⁻¹ s⁻¹ | Fab fragment of antibody 15431 (Fab, not shown: a dimerising Fc or GST) heavy: QVQLQQSGPGLVKPSQTLSLTCAISGDSVSSNSAAWNWIRQSPSRGLEWLGRTYYRSKWYNDYAVSVKSRITINPDTSKNQFSLQLNSVTPEDTAVYYCARDDDWNDFDYWGQGTLVTVSS light: not shown
35 nM | 0.0025 s⁻¹ | 70000 M⁻¹ s⁻¹ | Fab fragment of antibody 15011 (Fab, not shown: a dimerising Fc or GST) heavy: EVQLLESGGGLVQPGGSLRLSCAASGFDFRSYAMMWVRQAPGKGLEWVGGINGEVGGSNTYYAPAVKGRATISRDNSKNTLYLQMNSLRAEDTAVYYCVKGAGACGICNDDIDAWGQGTLVTVSS light: SYELTQDPAVSVALGQTVRITCSGAGSYAGSYYYGWHQQKPGQAPVTVIYDNDKRPSNIPDRFSGSSSGNTASLTITGAQAEDEADYYCGSTNDNDDGGLFGSGTKVTVLGQPKANPTVTLFPPSSEELQANKATLVCLISDFYPGAVTVAWKADGSPVKAGVETTKPSKQSNNKYAASSYLSLTPEQWKSHRSYSCQVTHEGSTVEKTVAPTECS
